Results published in patent publication US20250042987A1 (BEIJING DONGFANG BIOTECH, published 2025).

Biological target: T1, mouse TSLP-His (Sino Biological, product code 51005-M08H) (mouse, UniProt Q9JIE6 20-140)
T1 construct: Bought reagent; also called TSLP (Mouse); not shown: His tag
T1 sequence (looked up): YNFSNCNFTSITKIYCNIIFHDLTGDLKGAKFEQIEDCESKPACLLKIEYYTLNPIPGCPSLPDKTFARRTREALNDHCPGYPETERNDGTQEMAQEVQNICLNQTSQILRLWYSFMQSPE
Assay: ELISA, mouse TSLP-His coated

B1: humanized anti-TSLP monoclonal antibody HA-II (antibody, human IgG1, kappa, L234A L235A, V domains shown)
VH: QVQLVQSGAEVKKPGASVKVSCKASGYTFTSYWMHWVRQAPGQGLEWIGLIDPSDSDTTYNQKFKGRATLTVDTSTSTAYMELSSLRSEDTAVYYCSRSLDGYFDHWGQGTLVTVSS
VL: DIVMTQSPSSLSASVGDRVTITCRASENIYSYLAWYQQKPGKAPKLLVYNARTLAEGVPSRFSGSGSGTDFTLTISSLQPEDFATYYCQHHYGTPWTFGGGTKVEIKR
  binding result: no binding (tested: 16 µg/ml (highest concentration))

B2: humanized anti-TSLP monoclonal antibody HA-IV (antibody, human IgG1, kappa, L234A L235A)
heavy: not shown
light: DIVMTQSPSSLSASVGDRVTITCRASENIYSYLAWYQQKPGKAPKLLVYNARTLAEGVPSRFSGSGSGTDFTLTISSLQPEDFATYYCQHHYGTPWTFGGGTKVEIKRTVAAPSVFIFPPSDEQLKSGTASVVCLLNNFYPREAKVQWKVDNALQSGNSQESVTEQDSKDSTYSLSSTLTLSKADYEKHKVYACEVTHQGLSSPVTKSFNRGEC
  binding result: no binding (tested: 16 µg/ml (highest concentration))

B3: humanized anti-TSLP monoclonal antibody HA-III (antibody, human IgG1, kappa, L234A L235A)
heavy: not shown
light: DIQMTQSPSSLSASVGDRVTITCRASENIYSYLAWYQQKPGKAPKLLVYNARTLAEGVPSRFSGSGSGTDFTLTISSLQPEDFATYYCQHHYGTPWTFGGGTKVEIKRTVAAPSVFIFPPSDEQLKSGTASVVCLLNNFYPREAKVQWKVDNALQSGNSQESVTEQDSKDSTYSLSSTLTLSKADYEKHKVYACEVTHQGLSSPVTKSFNRGEC
  binding result: no binding (tested: 16 µg/ml (highest concentration))

B4: humanized anti-TSLP monoclonal antibody HA-I (antibody, human IgG1, kappa, L234A L235A, V domains shown)
VH: QVQLVQSGAEVKKPGASVKVSCKASGYTFTSYWMHWVRQAPGQGLEWIGLIDPSDSDTTYNQKFKGRATLTVDTSTSTAYMELSSLRSEDTAVYYCSRSLDGYFDHWGQGTLVTVSS
VL: DIVMTQSPSSLSASVGDRVTITCRASENIYSYLAWYQQKPGKSPKLLVYNARTLAEGVPSRFSGSGSGTDFTLTISSLQPEDFATYYCQHHYGTPWTFGGGTKVEIKR
notes: also called HA-1; EB070
  binding result: no binding (tested: 16 µg/ml (highest concentration))
